# Measured values: US20250114463A1, “LIVER-TARGETED DRUG AND USE THEREOF” (HANMI PHARM. CO., LTD., priority 2021, published 2025)
# Bridges are numbered along the chain shown (N, C = ends). Where no end group is shown, it is not given here. [ ]: non-standard residue; d: D form. Aib = CC(C)(N)C(=O)O
# T1: human GIP receptor (human, UniProt P48546 22-466)
# T1 sequence (looked up): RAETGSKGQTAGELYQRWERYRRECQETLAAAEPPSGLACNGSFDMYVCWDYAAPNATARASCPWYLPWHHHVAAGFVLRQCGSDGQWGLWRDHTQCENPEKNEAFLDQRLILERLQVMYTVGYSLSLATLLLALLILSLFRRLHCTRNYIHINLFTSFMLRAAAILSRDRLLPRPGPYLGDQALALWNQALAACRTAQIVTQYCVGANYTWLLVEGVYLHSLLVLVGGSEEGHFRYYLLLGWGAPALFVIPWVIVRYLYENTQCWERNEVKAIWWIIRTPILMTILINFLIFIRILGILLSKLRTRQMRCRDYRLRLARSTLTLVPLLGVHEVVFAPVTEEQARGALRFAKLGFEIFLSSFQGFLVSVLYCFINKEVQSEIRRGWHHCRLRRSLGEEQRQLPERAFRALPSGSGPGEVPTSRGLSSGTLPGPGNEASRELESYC
# What was measured:
# Assay in all cases: cell-based or functional assay
# human GIP receptor = target: T1, human GIP receptor
# human GLP-1 receptor = human GLP-1 receptor (human, UniProt P43220 24-463)
# human GCG receptor = human GCG receptor (human, UniProt P47871 26-477)
# Chain of human GCG receptor (P47871 26-477): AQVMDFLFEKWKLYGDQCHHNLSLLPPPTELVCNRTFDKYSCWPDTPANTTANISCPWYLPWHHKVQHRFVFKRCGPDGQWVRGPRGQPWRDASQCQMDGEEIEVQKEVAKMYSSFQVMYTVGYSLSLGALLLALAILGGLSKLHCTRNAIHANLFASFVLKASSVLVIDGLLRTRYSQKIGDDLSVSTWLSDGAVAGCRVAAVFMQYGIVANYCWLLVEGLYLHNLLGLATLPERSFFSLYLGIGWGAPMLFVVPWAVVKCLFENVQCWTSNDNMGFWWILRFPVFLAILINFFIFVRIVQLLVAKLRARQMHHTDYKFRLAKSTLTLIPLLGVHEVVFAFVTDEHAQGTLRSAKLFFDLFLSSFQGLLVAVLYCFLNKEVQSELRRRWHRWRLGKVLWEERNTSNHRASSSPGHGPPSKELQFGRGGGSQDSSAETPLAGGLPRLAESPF
Binder,"in vitro Activity Compared to Native Peptide (%), vs GIP (human GIP receptor) [%]","in vitro Activity Compared to Native Peptide (%), vs GLP-1 (human GLP-1 receptor) [%]","in vitro Activity Compared to Native Peptide (%), vs Glucagon (human GCG receptor) [%]"
H[Aib]QGTFTSDYSIAMDEIHQKDFVNWLLAQKC (bridge 16-20; not fully specified (C-terminus)) [triple agonist of SEQ ID NO: 33],10.4,24.5,< 0.1
H[Aib]QGTFTSDYSKYLDEKAQKEFVQWLLDTC (bridge 16-20; not fully specified (C-terminus)) [triple agonist of SEQ ID NO: 30],0.8,142,0.7
H[Aib]QGTFTSDYSKYLDEKACKEFVQWLLAQ (bridge 16-20; not fully specified (C-terminus)) [triple agonist of SEQ ID NO: 31],2.4,135,2.2
H[Aib]QGTFTSDYSKYLDEKACKDFVQWLLDGGPSSGAPPPS (bridge 16-20; not fully specified (C-terminus)) [triple agonist of SEQ ID NO: 32],8.8,151,1.7
